± gives the standard deviation of the averaged measurements.
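Further: ATP exposure 15 min at 22 °C before imaging.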

This series concerns ATP. The experiment in a line: switch fluorescence ratio, 500 uM ATP over buffer (Cy3 cluster intensity, sum of 5 cycles each) (fold (ratio)); higher = stronger signal-on switching upon ATP binding; sequences stand for … in TCGTCGGCAGCGTCAGATGTGTATAAGAGACAGTTTTTTTTTTTTTTTTTTTTTTTTT…TC. The conditions noted are these: aptamer strand: ATP DNA aptamer (quencher-CACCTGGGGGAGTATTGCGGAGGAAGG + anchor), 100 nM annealed; ATP concentration: 500 uM. The method in brief:
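Cy3-labelled switching-strand clusters on a modified Illumina MiSeq flow-cell were annealed to 100 nM quencher-labelled ATP aptamer, imaged in selection buffer, then imaged after 15 min with 500 uM ATP at 22 °C. Five buffer/ATP cycles ran, with NaOH stripping and re-annealing between them. The fluorescence ratio is summed target-cycle over summed buffer-cycle Cy3 intensity per cluster, averaged per switch-domain sequence. Clusters outside 100-1000 RFU were excluded.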
As to ACGAGCGTGG, the switch fluorescence ratio was 1 ± 0.011.

As to TTTTACCCTT, the switch fluorescence ratio came out at 1.04 ± 0.04.

Regarding CGCTGGCATG, the switch fluorescence ratio worked out at 1 ± 0.032.

As for AGGCAATATG, the switch fluorescence ratio came out at 1.19 ± 0.018.

With CAATTTAAGG, the switch fluorescence ratio is 0.997 ± 0.041.

Consider GGTTGGTACT, for which the switch fluorescence ratio came out at 1 ± 0.026.

Turning to ACCTTATATA, the switch fluorescence ratio came out at 1.056 ± 0.0094.

On to CCCGGACGGT, for which the switch fluorescence ratio turned out to be 1 ± 0.025.

With TGTGGGTTAT, the switch fluorescence ratio turned out to be 0.976 ± 0.011.

For the sequence TCTAAGTATT, the switch fluorescence ratio is 1.02 ± 0.026.

Turning to CATGGGGTGT, the switch fluorescence ratio came to 1.01 ± 0.013.

Consider TTGATGGTGC, for which the switch fluorescence ratio was found to be 1.05 ± 0.038.

CATGGAAGGG: the switch fluorescence ratio turned out to be 0.9699 ± 0.0068.

For GGCTGTATTT, the switch fluorescence ratio was 0.9965 ± 0.0031.

Take GATTTTCTTG: the switch fluorescence ratio was 1.03 ± 0.017.

TATTGATATT: the switch fluorescence ratio turned out to be 1.06 ± 0.14.

For CTGGAATCCG, the switch fluorescence ratio is 1.08 ± 0.015.

With GGGAAAGGTA, the switch fluorescence ratio turned out to be 0.986 ± 0.011.

Take CGGTCCTGAA: the switch fluorescence ratio worked out at 1.03 ± 0.002.

Turning to CGTTGTTGTA, the switch fluorescence ratio was 1.01 ± 0.02.

Take GAAATTTGAA: the switch fluorescence ratio was determined as 1.01 ± 0.012.

Take TCGTCCGGAG: the switch fluorescence ratio came to 1.55 ± 0.016.

Regarding AAGTAAGTGG, the switch fluorescence ratio was 1.03 ± 0.042.

Take AAAAGACCCG: the switch fluorescence ratio stood at 1.07 ± 0.044.

With GGAATTTGGG, the switch fluorescence ratio was 0.99 ± 0.021.

Regarding AGTGTATTGA, the switch fluorescence ratio worked out at 1 ± 0.036.

For the sequence CTAATATTAG, the switch fluorescence ratio is 1 ± 0.086.

Turning to TCATTAAGGT, the switch fluorescence ratio came out at 0.995 ± 0.03.

Regarding GGGCTAGGGA, the switch fluorescence ratio amounted to 0.972 ± 0.041.

As to TATATGGCGG, the switch fluorescence ratio is 0.9719 ± 0.0074.

Turning to GAGTTAAGAC, the switch fluorescence ratio was found to be 0.991 ± 0.049.

As to TATGCTGGAT, the switch fluorescence ratio was determined as 1.02 ± 0.059.

In the case of CGGGCCTCCG, the switch fluorescence ratio amounted to 1.152 ± 0.0046.

With CGATCGAGGA, the switch fluorescence ratio came out at 0.991 ± 0.036.

CGTGGGTAGA: the switch fluorescence ratio came out at 1.06 ± 0.09.

As for TTTTGGGAT, the switch fluorescence ratio was 1.04 ± 0.15.

With TGCTGCCTAC, the switch fluorescence ratio amounted to 2.38 ± 1.6.

Consider AGAAAAGCAG, for which the switch fluorescence ratio was determined as 1.02 ± 0.015.

As to TTGGGGCTTT, the switch fluorescence ratio was determined as 1.02 ± 0.056.

For the sequence ATTTCTCTTG, the switch fluorescence ratio was 0.998 ± 0.025.

For the sequence CTGGACAGTA, the switch fluorescence ratio is 1.01 ± 0.027.

In the case of TCTGTGGCAA, the switch fluorescence ratio was determined as 1.18 ± 0.28.

In the case of GATGGAGGGA, the switch fluorescence ratio was determined as 1.01 ± 0.028.

Turning to CGAATAGGCT, the switch fluorescence ratio was 1.006 ± 0.0029.

For the sequence ATGGATAAGA, the switch fluorescence ratio came out at 1 ± 0.014.

In the case of AAGGTATTAA, the switch fluorescence ratio was 1 ± 0.036.

In the case of ATGCAGTCTA, the switch fluorescence ratio amounted to 1.017 ± 0.005.

As for CGGTTTTGCG, the switch fluorescence ratio was found to be 0.985 ± 0.024.

For TTCAATGAAA, the switch fluorescence ratio was 1 ± 0.054.

As to TCGGCATCGG, the switch fluorescence ratio came to 1 ± 0.021.

Consider CTTAGTAGT, for which the switch fluorescence ratio turned out to be 0.973 ± 0.024.

In the case of TTAGGAAAGG, the switch fluorescence ratio came out at 1.06 ± 0.12.

For GGTCGAGCC, the switch fluorescence ratio stood at 0.983 ± 0.021.

TAGTTTTATG: the switch fluorescence ratio is 0.959 ± 0.015.

As for TGCCTAACTT, the switch fluorescence ratio worked out at 1.019 ± 0.0066.

As to TTGGTAGAAA, the switch fluorescence ratio came out at 0.982 ± 0.024.

For the sequence GTGGTTTTAT, the switch fluorescence ratio was 0.979 ± 0.013.

Regarding GCCTTCCGTT, the switch fluorescence ratio was determined as 1.39 ± 0.49.

Regarding TTTCGAGAGA, the switch fluorescence ratio was 1.02 ± 0.027.

Consider CGATTTGGAG, for which the switch fluorescence ratio was 0.995 ± 0.012.

For ATCAGAATGA, the switch fluorescence ratio turned out to be 1.013 ± 0.0023.

On to CAGGAAGGAT, for which the switch fluorescence ratio turned out to be 0.994 ± 0.016.

With TAACTGCATT, the switch fluorescence ratio is 1.16 ± 0.14.

Take CGTTGGGGCA: the switch fluorescence ratio stood at 1 ± 0.077.

CCTCAAAAAA: the switch fluorescence ratio is 2.98 ± 0.2.

Turning to CTGATTATGT, the switch fluorescence ratio is 1.02 ± 0.015.

Turning to TGTTGCCGTT, the switch fluorescence ratio came to 0.886 ± 0.057.

The values above are taken from the supplement of paper PMC10126150.
